Experiments:
[1] = molecular target: T1, rHuman ErbB2/Fc Chimera, CF (Cat# 1129-ER) (human, UniProt P04626 23-652); experiment: Multispot ECL; Fab 930 nM
T1 construct: Bought from R&D Systems; also called human epidermal growth factor 2 receptor (ErbB2)
Protocol: (§1) An 150 μl aliquot of 1% Bovine Serum Albumin (BSA) in Tris-buffered Saline Tween (TBST) was added to each well and allowed to incubate for 30 min at 20° C. followed by washing and tap drying to completely remove any residual solution. Subsequently, a 12.5 μl aliquot of 1% BSA TBST was added to each well followed by the addition of a 12.5 μl aliquot of a purified Fab. The plate was sealed and incubated for 1 hour at 20° C. with shaking.
(§2) Detection antibodies were prepared by individually conjugating both goat anti-human Kappa light chain polyclonal antibody (K3502-1MG, Sigma-Aldrich) and goat anti-human Lambda light chain polyclonal antibody (L1645-1 mL, Sigma-Aldrich) with Ruthenium (II) tris-bipyridine-(4-methylsulfone)-N-hydroxysuccinimide (SULFO-TAG NHS-ester, Meso Scale Discovery) according to the manufacturer's instructions. TAG-detection antibody at 25 μl was added to each well and allowed to incubate for 1 hour at 20° C. with shaking. Finally, 15 μl of Read Buffer P with Surfactant (Cat # R92PC-1, Meso Scale Discovery) was added to each well. The electrochemiluminescence was measured using a Sector Imager 2400 (Meso Scale Discovery). Data was analyzed by comparing the ECL signals for an antigen to the blank of each well. A signal to blank ratio of 4 or more was considered a “Hit” Fab.
(§3) To confirm a “Hit” from the initial Multispot ECL screening, a Fab concentration dependent titration was carried out to determine the Fab-antigen binding affinity.

[2] = molecular target: T2, rHuman Notch-1/Fc Chimera, CF (Cat# 3647-TK) (human, UniProt P46531 19-526); experiment: Multispot ECL; Fab 930 nM
T2 construct: Bought from R&D Systems
Protocol: as §1, §2, §3

[3] = molecular target: T3, rHuman CD44/Fc Chimera, CF (Cat# 3660-CD) (human, UniProt P16070 21-220); experiment: Multispot ECL; Fab 930 nM
T3 construct: Bought from R&D Systems
Protocol: as §1, §2, §3

[4] = molecular target: T4, rHuman IGF-1 sR, (IGF-1 sR), CF (Cat# 391-GR) (human, UniProt P08069 31-932); experiment: Multispot ECL; Fab 930 nM
T4 construct: Bought from R&D Systems; also called insulin-like growth factor-1 soluble receptor
Protocol: as §1, §2, §3

[5] = molecular target: T5, rHuman Erythropoietin R/Fc Chimera, CF (Cat# 963-ER) (human, UniProt P19235 25-250); experiment: Multispot ECL; Fab 930 nM
T5 construct: Bought from R&D Systems; also called EPO R/Fc; Epo R/Fc chimera
T5 sequence (looked up): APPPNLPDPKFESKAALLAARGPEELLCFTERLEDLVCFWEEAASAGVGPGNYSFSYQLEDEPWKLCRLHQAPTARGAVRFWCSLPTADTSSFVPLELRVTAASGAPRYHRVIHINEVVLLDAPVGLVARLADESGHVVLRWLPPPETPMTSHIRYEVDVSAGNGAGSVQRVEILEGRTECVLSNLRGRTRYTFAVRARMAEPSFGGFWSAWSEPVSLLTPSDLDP
Protocol: as §1, §2, §3

[6] = molecular target: T6, Recombinant Human DLL4 (Cat# 1506-D4/CF) (human, UniProt Q9NR61 27-529); experiment: Multispot ECL; Fab 930 nM
T6 construct: Bought from R&D Systems; also called rHuman DLL4; hDLL4
Protocol: as §1, §2, §3

[7] = molecular target: T1, rHuman ErbB2/Fc Chimera, CF (Cat# …); experiment: Multispot ECL; Fab 14.5 nM
Protocol: as §1, §2, §3

[8] = molecular target: T2, rHuman Notch-1/Fc Chimera, CF (Cat# …); experiment: Multispot ECL; Fab 14.5 nM
Protocol: as §1, §2, §3

[9] = molecular target: T3, rHuman CD44/Fc Chimera, CF (Cat# …); experiment: Multispot ECL; Fab 14.5 nM
Protocol: as §1, §2, §3

[10] = molecular target: T4, rHuman IGF-1 sR, (IGF-1 sR), CF (Cat# …); experiment: Multispot ECL; Fab 14.5 nM
Protocol: as §1, §2, §3

[11] = molecular target: T5, rHuman Erythropoietin R/Fc Chimera, CF …; experiment: Multispot ECL; Fab 14.5 nM
Protocol: as §1, §2, §3

[12] = molecular target: T6, Recombinant Human DLL4 (Cat# 1506-D4/CF); experiment: Multispot ECL; Fab 14.5 nM
Protocol: as §1, §2, §3

[13] = molecular target: T1, rHuman ErbB2/Fc Chimera, CF (Cat# …); experiment: Multispot ECL; Fab 58.1 nM
Protocol: as §1, §2, §3

[14] = molecular target: T2, rHuman Notch-1/Fc Chimera, CF (Cat# …); experiment: Multispot ECL; Fab 58.1 nM
Protocol: as §1, §2, §3

[15] = molecular target: T3, rHuman CD44/Fc Chimera, CF (Cat# …); experiment: Multispot ECL; Fab 58.1 nM
Protocol: as §1, §2, §3

[16] = molecular target: T4, rHuman IGF-1 sR, (IGF-1 sR), CF (Cat# …); experiment: Multispot ECL; Fab 58.1 nM
Protocol: as §1, §2, §3

[17] = molecular target: T5, rHuman Erythropoietin R/Fc Chimera, CF …; experiment: Multispot ECL; Fab 58.1 nM
Protocol: as §1, §2, §3

[18] = molecular target: T6, Recombinant Human DLL4 (Cat# 1506-D4/CF); experiment: Multispot ECL; Fab 58.1 nM
Protocol: as §1, §2, §3

[19] = molecular target: T1, rHuman ErbB2/Fc Chimera, CF (Cat# …); experiment: Multispot ECL; Fab 232.5 nM
Protocol: as §1, §2, §3

[20] = molecular target: T2, rHuman Notch-1/Fc Chimera, CF (Cat# …); experiment: Multispot ECL; Fab 232.5 nM
Protocol: as §1, §2, §3

[21] = molecular target: T3, rHuman CD44/Fc Chimera, CF (Cat# …); experiment: Multispot ECL; Fab 232.5 nM
Protocol: as §1, §2, §3

[22] = molecular target: T4, rHuman IGF-1 sR, (IGF-1 sR), CF (Cat# …); experiment: Multispot ECL; Fab 232.5 nM
Protocol: as §1, §2, §3

[23] = molecular target: T5, rHuman Erythropoietin R/Fc Chimera, CF …; experiment: Multispot ECL; Fab 232.5 nM
Protocol: as §1, §2, §3

[24] = molecular target: T6, Recombinant Human DLL4 (Cat# 1506-D4/CF); experiment: Multispot ECL; Fab 232.5 nM
Protocol: as §1, §2, §3

ECL signal [1]: 2220 | ECL signal [2]: 2210 | ECL signal [3]: 1920 | ECL signal [4]: 1920 | ECL signal [5]: 3010 | ECL signal [6]: 8160 | ECL signal [7]: 274 | ECL signal [8]: 317 | ECL signal [9]: 212 | ECL signal [10]: 234 | ECL signal [11]: 660 | ECL signal [12]: 1150 | ECL signal [13]: 322 | ECL signal [14]: 388 | ECL signal [15]: 375 | ECL signal [16]: 343 | ECL signal [17]: 829 | ECL signal [18]: 1880 | ECL signal [19]: 779 | ECL signal [20]: 778 | ECL signal [21]: 607 | ECL signal [22]: 569 | ECL signal [23]: 1470 | ECL signal [24]: 3590
B1: Fab VH1-46_IGHD6-13*01_IGHJ4*01 & O1_IGKJ1*01 (Fab, V domains shown)
VH: QVQLVQSGAEVKKPGASVKVSCKASGYTFTSYYMHWVRQAPGQGLEWMGIINPSGGSTSYAQKFQGRVTMTRDTSTSTVYMELSSLRSEDTAVYYCAREGYSSSWYDYFDYWGQGTLVTVSS
VL: DIVMTQTPLSLPVTPGEPASISCRSSQSLLDSDDGNTYLDWYLQKPGQSPQLLIYTLSYRASGVPDRFSGSGSGTDFTLKISRVEAEDVGVYYCMQRIEFPSWTFGQGTKVEIKR
notes: Germline-derived Fab from E. coli: VH in Plasmid A (CH1, His6 and Flag tags), VL in Plasmid C (kappa CL)
